Common to all, as to assay: fluorescence anisotropy
One data set addresses T1, SA2 (STAG2) (UniProt Q8N3U4 1-1231).
T1 sequence: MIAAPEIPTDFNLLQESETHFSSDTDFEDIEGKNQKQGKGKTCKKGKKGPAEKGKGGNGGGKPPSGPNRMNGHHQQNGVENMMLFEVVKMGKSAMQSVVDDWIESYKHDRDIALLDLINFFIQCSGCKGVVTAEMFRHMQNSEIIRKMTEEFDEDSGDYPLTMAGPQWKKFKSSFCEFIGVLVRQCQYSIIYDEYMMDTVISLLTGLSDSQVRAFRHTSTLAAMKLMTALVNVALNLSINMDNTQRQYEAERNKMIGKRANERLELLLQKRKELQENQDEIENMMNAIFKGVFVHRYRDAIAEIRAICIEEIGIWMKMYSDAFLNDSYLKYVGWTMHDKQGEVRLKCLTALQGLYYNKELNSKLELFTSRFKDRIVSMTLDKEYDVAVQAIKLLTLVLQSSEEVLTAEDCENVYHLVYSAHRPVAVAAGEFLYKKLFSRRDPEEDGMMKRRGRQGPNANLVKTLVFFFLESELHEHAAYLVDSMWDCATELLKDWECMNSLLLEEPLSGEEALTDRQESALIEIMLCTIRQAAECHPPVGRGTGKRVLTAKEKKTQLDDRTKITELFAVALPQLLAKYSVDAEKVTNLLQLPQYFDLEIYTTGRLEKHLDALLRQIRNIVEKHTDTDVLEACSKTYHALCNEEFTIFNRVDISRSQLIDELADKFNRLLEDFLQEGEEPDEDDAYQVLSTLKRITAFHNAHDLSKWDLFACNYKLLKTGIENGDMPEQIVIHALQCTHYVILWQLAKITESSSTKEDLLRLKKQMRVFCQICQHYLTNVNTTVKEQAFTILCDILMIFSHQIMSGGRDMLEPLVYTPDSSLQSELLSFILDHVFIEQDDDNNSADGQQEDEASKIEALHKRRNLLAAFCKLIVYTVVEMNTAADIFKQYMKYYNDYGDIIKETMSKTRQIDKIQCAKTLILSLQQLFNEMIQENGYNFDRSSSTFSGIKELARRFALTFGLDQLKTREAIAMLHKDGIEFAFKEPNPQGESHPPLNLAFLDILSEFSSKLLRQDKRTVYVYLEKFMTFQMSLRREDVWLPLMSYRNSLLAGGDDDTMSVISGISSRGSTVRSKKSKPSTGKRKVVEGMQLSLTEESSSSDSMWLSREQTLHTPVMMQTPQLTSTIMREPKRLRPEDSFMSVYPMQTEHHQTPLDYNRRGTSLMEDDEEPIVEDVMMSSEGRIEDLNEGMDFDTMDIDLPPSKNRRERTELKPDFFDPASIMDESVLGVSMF

Another data set addresses T2, SA1 (STAG1) (UniProt Q8WVM7 1-1258).
T2 sequence: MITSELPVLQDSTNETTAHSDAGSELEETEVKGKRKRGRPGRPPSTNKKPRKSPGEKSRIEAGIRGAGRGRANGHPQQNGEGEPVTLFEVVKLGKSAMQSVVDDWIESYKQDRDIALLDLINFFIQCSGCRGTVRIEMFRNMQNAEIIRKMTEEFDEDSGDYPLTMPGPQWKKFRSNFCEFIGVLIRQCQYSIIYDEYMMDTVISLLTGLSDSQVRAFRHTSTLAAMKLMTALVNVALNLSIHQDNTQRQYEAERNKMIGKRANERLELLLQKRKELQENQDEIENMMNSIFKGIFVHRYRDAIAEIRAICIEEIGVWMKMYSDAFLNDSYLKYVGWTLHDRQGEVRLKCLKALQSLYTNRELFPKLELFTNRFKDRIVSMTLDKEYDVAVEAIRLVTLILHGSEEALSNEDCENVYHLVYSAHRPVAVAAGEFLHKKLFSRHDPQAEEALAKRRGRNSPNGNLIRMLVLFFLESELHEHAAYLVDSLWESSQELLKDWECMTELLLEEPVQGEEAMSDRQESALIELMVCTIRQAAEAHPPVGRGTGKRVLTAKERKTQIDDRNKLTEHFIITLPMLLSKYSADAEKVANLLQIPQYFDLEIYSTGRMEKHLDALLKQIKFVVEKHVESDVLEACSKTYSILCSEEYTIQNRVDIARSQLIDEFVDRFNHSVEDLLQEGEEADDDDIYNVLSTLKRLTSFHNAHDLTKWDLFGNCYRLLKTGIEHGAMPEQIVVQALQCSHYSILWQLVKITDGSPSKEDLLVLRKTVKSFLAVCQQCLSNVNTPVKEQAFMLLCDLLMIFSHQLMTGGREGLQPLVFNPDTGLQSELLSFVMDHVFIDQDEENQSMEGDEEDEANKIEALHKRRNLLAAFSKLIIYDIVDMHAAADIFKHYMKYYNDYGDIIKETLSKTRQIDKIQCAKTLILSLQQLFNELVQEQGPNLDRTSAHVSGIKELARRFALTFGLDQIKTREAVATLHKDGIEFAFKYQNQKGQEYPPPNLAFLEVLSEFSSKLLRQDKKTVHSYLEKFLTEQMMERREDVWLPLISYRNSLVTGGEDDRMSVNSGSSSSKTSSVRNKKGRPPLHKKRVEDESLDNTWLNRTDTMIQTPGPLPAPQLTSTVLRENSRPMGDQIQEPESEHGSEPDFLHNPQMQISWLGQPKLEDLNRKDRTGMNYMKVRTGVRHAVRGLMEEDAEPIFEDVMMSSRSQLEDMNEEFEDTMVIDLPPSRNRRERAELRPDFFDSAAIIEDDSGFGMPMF

Another data set has as its target EWSR1 (UniProt Q01844 1-656).

EWSR1, sequence (Q01844 whole entry): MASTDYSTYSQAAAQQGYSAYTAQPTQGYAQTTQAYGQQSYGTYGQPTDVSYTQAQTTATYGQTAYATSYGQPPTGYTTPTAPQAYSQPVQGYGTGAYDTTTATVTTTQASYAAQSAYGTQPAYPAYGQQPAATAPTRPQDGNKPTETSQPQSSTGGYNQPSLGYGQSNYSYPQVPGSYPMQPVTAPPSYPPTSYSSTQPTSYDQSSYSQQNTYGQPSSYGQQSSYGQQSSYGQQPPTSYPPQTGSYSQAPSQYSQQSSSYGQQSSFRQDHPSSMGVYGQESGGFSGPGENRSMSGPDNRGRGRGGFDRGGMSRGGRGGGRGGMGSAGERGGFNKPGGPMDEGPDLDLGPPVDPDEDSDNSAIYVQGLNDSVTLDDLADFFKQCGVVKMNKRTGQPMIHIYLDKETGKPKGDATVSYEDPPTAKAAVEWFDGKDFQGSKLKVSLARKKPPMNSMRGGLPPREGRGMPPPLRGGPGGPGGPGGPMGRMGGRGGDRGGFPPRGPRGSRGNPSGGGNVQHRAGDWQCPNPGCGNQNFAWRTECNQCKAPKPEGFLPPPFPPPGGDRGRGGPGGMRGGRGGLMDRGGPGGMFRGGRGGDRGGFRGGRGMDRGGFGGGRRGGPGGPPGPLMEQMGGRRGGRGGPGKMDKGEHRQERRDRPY

B1: Model R-loop (mixed)
RNA: GCAGCUGGCACGACAGGUAUGAAUC
DNA 1: GCCAGGGACGAGGTGAACCTGCAGGTGGGCGGCTACTACTTAGATGTCATCCGAGGCTTATTGGTAGAATTCGGCAGCGTCATGCGACGGC
DNA 2: GCCGTCGCATGACGCTGCCGAATTCTACCACGCGATTCATACCTGTCGTGCCAGCTGCTTTGCCCACCTGCAGGTTCACCTCGTCCCTGGC
In general, Kd refers to the equilibrium constant for the complex coming apart. B1: the Kd was determined as 36 ± 4 nM in the data set with SA2 (STAG2), 38.4 ± 8.7 nM with SA1 (STAG1) and 28.6 ± 0.8 nM in the data set with EWSR1.

B2: RNA:DNA hybrid (45 bp) (DNA:RNA)
RNA: CUGGAUCCGUACAGUGUAAGGGUGAGUGGUUGGGUGUGUGGGUGU
DNA: ACACCCACACACCCAACCACTCACCCTTACACTGTACGGATCCAG
For the molecule B2, the Kd in the data set with SA2 (STAG2) is 31.7 ± 1.5 nM; in the data set with SA1 (STAG1), 44 ± 5.9 nM; in the data set with EWSR1, 27.7 ± 4.1 nM.

B3: 45 nt RNA (ssRNA)
RNA: CUGGAUCCGUACAGUGUAAGGGUGAGUGGUUGGGUGUGUGGGUGU
For B3, the Kd is 11.4 ± 1.2 nM with SA2 (STAG2) and 6 ± 0.6 nM in the data set with SA1 (STAG1).

B4: RNA:DNA hybrid (25 bp) (DNA:RNA)
RNA: GCAGCUGGCACGACAGGUAUGAAUC
DNA: GATTCATACCTGTCGTGCCAGCTGC
On to B4, for which the results for the Kd with SA2 (STAG2) and with SA1 (STAG1) were 43.3 ± 5.6 nM and 58.6 ± 1.5 nM, respectively.

B5: 66 nt RNA-2 (ssRNA)
RNA: UCGAAUUCUUGUUCUACAUCAACACCCACACACCCAACCACUCACCCUUACACUGUACGGAUCCAG
Take B5: the Kd with SA2 (STAG2) was 5.1 ± 0.6 nM; in the data set with SA1 (STAG1), 3 ± 0.1 nM.

B6: 66 nt RNA-1 (ssRNA)
RNA: CUGGAUCCGUACAGUGUAAGGGUGAGUGGUUGGGUGUGUGGGUGUUGAUGUAGAACAAGAAUUCGA
For the molecule B6, the Kd amounted to 7.2 ± 2.5 nM with SA2 (STAG2), 3.2 ± 0.3 nM with SA1 (STAG1) and 35.1 ± 1.8 nM with EWSR1.

B7: 25 nt RNA (R-loop oligo) (ssRNA)
RNA: GCAGCUGGCACGACAGGUAUGAAUC
As to B7, the Kd with SA2 (STAG2) came to 251 ± 3.2 nM; with SA1 (STAG1), 164 ± 37.4 nM; with EWSR1, 134.2 ± 0.04 nM.

Values taken from publication PMC7261166.
